Source: US20250262210A1 (TRUSTEES OF COLUMBIA UNIVERSITY IN THE CITY OF NEW YORK, published 2025)

Biological target: T1, POLR3A (human, UniProt O14802 1-1390)
T1 sequence (looked up): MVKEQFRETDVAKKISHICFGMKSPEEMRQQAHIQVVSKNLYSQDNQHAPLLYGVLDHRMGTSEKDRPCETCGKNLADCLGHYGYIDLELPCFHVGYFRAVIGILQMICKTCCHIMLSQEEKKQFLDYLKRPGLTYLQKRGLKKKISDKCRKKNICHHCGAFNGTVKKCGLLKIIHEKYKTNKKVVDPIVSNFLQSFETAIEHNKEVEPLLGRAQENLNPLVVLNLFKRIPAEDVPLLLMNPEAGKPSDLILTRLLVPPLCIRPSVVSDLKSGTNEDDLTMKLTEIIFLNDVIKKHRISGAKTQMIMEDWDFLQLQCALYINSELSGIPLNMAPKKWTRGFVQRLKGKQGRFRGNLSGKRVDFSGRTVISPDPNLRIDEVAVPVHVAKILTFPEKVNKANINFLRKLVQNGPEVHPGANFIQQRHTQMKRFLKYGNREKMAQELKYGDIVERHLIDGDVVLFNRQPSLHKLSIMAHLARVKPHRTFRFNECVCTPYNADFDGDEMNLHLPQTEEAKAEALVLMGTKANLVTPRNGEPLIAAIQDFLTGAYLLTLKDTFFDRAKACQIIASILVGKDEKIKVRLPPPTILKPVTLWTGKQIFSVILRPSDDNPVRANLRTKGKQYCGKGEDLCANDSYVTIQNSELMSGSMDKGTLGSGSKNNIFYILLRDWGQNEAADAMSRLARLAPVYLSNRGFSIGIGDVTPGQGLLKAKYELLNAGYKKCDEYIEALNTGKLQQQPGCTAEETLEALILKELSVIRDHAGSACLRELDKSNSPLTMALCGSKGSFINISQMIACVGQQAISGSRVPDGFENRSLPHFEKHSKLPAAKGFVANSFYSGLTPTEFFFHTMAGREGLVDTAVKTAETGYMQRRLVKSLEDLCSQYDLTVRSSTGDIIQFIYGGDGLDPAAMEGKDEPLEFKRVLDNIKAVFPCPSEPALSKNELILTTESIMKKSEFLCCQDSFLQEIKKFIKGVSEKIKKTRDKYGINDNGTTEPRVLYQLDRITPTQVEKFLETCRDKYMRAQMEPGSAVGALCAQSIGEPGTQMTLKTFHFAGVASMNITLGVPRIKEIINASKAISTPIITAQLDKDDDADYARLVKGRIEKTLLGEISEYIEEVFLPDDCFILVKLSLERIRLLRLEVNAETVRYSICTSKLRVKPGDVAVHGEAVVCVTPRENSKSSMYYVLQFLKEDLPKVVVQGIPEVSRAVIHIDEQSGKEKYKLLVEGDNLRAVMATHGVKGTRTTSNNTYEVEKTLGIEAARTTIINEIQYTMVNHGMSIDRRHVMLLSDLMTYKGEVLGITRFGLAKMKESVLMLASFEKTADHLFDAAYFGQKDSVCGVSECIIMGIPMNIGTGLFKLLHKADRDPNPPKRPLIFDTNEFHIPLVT
Experiment: IP/MS, LZTR1 R810W-FLAG, U87
In short: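 Extracted peptides in 3% acetonitrile/0.1% formic acid ran on a 50 cm C18 column into an Orbitrap Fusion, with MaxQuant identification and spectral counting.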

B1: LZTR1 R810W-FLAG (other, human, UniProt Q8N653 1-840, looked up)
chain: MAGPGSTGGQIGAAALAGGARSKVAPSVDFDHSCSDSVEYLTLNFGPFETVHRWRRLPPCDEFVGARRSKHTVVAYKDAIYVFGGDNGKTMLNDLLRFDVKDCSWCRAFTTGTPPAPRYHHSAVVYGSSMFVFGGYTGDIYSNSNLKNKNDLFEYKFATGQWTEWKIEGRLPVARSAHGATVYSDKLWIFAGYDGNARLNDMWTIGLQDRELTCWEEVAQSGEIPPSCCNFPVAVCRDKMFVFSGQSGAKITNNLFQFEFKDKTWTRIPTEHLLRGSPPPPQRRYGHTMVAFDRHLYVFGGAADNTLPNELHCYDVDFQTWEVVQPSSDSEVGGAEVPERACASEEVPTLTYEERVGFKKSRDVFGLDFGTTSAKQPTQPASELPSGRLFHAAAVISDAMYIFGGTVDNNIRSGEMYRFQFSCYPKCTLHEDYGRLWESRQFCDVEFVLGEKEECVQGHVAIVTARSRWLRRKITQARERLAQKLEQEAAPVPREAPGVAAGGARPPLLHVAIREAEARPFEVLMQFLYTDKIKYPRKGHVEDVLLIMDVYKLALSFQLCRLEQLCRQYIEASVDLQNVLVVCESAARLQLSQLKEHCLNFVVKESHFNQVIMMKEFERLSSPLIVEIVRRKQQPPPRTPLDQPVDIGTSLIQDMKAYLEGAGAEFCDITLLLDGHPRPAHKAILAARSSYFEAMFRSFMPEDGQVNISIGEMVPSRQAFESMLRYIYYGEVNMPPEDSLYLFAAPYYYGFYNNRLQAYCKQNLEMNVTVQNVLQILEAADKTQALDMKRHCLHIIVHQFTKVSKLPTLWSLSQQLLLDIIDSLASHISDKQCAELGADI
notes: Stably expressed in U87 cells by lentivirus; also called LZTR1-FLAG-R810W; LZTR1 RW; not shown: FLAG tag
B1: binds.
